Laboratory results reported in paper PMC6426937.

Target: Hsp82p (Saccharomyces cerevisiae Hsp90), N terminal 6xHis tag (Saccharomyces cerevisiae) (UniProt P02829)
Sequence (P02829 whole entry): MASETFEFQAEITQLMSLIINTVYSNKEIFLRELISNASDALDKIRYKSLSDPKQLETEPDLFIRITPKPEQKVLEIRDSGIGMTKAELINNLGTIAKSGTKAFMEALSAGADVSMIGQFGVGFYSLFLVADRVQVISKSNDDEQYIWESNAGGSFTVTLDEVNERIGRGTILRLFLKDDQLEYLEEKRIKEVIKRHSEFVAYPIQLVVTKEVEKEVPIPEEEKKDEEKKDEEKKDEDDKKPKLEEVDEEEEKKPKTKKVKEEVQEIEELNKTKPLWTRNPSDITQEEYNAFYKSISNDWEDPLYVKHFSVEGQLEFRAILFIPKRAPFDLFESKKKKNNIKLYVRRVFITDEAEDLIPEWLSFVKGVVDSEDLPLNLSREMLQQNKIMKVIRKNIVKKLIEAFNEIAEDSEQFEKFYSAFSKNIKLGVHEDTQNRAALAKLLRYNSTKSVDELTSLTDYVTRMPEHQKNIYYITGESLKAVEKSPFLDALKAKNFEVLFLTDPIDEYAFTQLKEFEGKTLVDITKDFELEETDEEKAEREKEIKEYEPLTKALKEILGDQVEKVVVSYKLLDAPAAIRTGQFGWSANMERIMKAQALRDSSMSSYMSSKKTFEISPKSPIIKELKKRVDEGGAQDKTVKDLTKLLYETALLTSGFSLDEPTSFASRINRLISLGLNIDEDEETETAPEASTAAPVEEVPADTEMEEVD

Binder | apparent affinity (Kapp) from stimulation of the Hsp82p ATPase activity by increasing co-chaperone (1 µM Hsp82p, 2 mM ATP, ATP regenerating system) [µM]
Aha1p^Δ11, C terminal 6xHis tag (domain or fragment) VDKNCIGWAKEYFKQKLVGVEAGSVKDKKYAKIKSVSSIEGDCEVNQRKGKVISLFDLKITVLIEGHVDSKDGSALPFEGSINVPEVAFDSEASSYQFDISIFKETSELSEAKPLIRSELLPKLRQIFQQFGKDLLATHGNDIQVPESQVKSNYTRGNQKSSFTEIKDSASKPKKNALPSSTSTSAPVSSTNKVPQNGSGNSTSIYLEPTFNVPSSELYETFLDKQRILAWTRSAQFFNSGPKLETKEKFELFGGNVISELVSCEKDKKLVFHWKLKDWSAPFNSTIEMTFHESQEFHETKLQVKWTGIPVGEEDRVRANFEEYYVRSIKLTFGFGAVL | 0.44
Aha1p, C terminal 6xHis tag (natural protein) MVVNNPNNWHWVDKNCIGWAKEYFKQKLVGVEAGSVKDKKYAKIKSVSSIEGDCEVNQRKGKVISLFDLKITVLIEGHVDSKDGSALPFEGSINVPEVAFDSEASSYQFDISIFKETSELSEAKPLIRSELLPKLRQIFQQFGKDLLATHGNDIQVPESQVKSNYTRGNQKSSFTEIKDSASKPKKNALPSSTSTSAPVSSTNKVPQNGSGNSTSIYLEPTFNVPSSELYETFLDKQRILAWTRSAQFFNSGPKLETKEKFELFGGNVISELVSCEKDKKLVFHWKLKDWSAPFNSTIEMTFHESQEFHETKLQVKWTGIPVGEEDRVRANFEEYYVRSIKLTFGFGAVL | 1.24
